Experimental data taken from publication PMC9769707.

Molecular target: T1, Dnr (Pseudomonas aeruginosa PAO1) (UniProt Q51441)
T1 sequence: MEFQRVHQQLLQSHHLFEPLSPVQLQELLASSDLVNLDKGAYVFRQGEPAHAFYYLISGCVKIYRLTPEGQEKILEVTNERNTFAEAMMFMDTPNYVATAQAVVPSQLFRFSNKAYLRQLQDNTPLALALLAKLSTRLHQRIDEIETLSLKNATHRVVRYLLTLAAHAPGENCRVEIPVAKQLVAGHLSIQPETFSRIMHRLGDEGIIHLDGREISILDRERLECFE
Assay: EMSA

For “GGCGGCTGACTCCGATGCAATGGTGGGGGAGCAATGCATCGGGGGGATGCCCTGATCATCGCAGTCCCTTGCTGGATCACAGGCATGACAGGGAAAACGGCGCAGAACCTGTCCTTGGCGATCCCTCTGGTCCGTCACTGGCGACGAACTACAAAAGACGCTAGAACAGGTCTATGGATTTGCAAAATAAAATTTTCGTTGGACTCCC (double strand) [hcp3 promoter fragment]”, the binding was “no binding”.
